Measurements from patent US20260043046A1 (ADVERUM BIOTECHNOLOGIES, published 2026).

B1: Products of pADV1176 (anti-C3 antibody expressed from plasmid pADV1176 in suspension HEK293 cells) (antibody, human IgG1, kappa, V domains shown)
VH: QVQLVQSGAEVKKPGASVKVSCKASGYTFTDFYMDWVRQAPGQRLEWMGYIYPHNAGTTYNQQFTGRVTITVDKSASTAYMELSSLRSEDTAVYYCARRGGFDFDYWGQGTLVTVSS
VL: DIQMTQSPSSLSASVGDRVTITCKASENVDTYVSWYQQKPGKAPKLLIYGASNRYTGVPSRFSGSGSGTDFTFTISSLQPEDIATYHCGQSHSYPLTFGQGTKLEIKR
notes: Full-length humanized human IgG1, tested as unpurified HEK293 supernatant at 0.015 mg/mL; Two copies of each chain is inferred from 'full-length' IgG1; also called humanized anti-C3 antibody; products of AAV2.7m8-pADV1176

Key:
[1] = target: T1, human complement C3 (Cat: C2910, Sigma) (human, UniProt P01024 23-1663); assay: BLI (Octet HTX, 25 °C), human IgG1 in buffer against human complement C3
T1 construct: Bought protein; Native C3 is a two-chain (beta/alpha) protein processed from one precursor, so it is written here as one natural entry; also called Complement component 3

[2] = target: T1, human complement C3 (Cat: C2910, Sigma); assay: BLI (Octet HTX, 25 °C), HEK293 supernatant against human complement C3
Description: Supernatant from suspension HEK293 cells transfected with vector carrying gene encoding anti-C3 antibody (cell culture and transfection methods can be found in previous section) were used for kinetics analysis via Octet (BLI) to measure binding affinity to human complement C3 (Cat: C2910, Sigma). Binding experiments were performed on Octet HTX at 25° C. by LakePharma (Redwood City, CA). There were three test articles including products of pADV1176 (0.015 mg/mL), negative control (supernatant from untransfected cells) and positive control (human IgG1 in buffer—137 mM NaCl, 2.7 mM KCl, 10 mM Na₂HPO₄, 2 mM KH₂PO₄, pH 7.4, 0.98 mg/mL).

T1 sequence (P01024 23-1663 limits assumed): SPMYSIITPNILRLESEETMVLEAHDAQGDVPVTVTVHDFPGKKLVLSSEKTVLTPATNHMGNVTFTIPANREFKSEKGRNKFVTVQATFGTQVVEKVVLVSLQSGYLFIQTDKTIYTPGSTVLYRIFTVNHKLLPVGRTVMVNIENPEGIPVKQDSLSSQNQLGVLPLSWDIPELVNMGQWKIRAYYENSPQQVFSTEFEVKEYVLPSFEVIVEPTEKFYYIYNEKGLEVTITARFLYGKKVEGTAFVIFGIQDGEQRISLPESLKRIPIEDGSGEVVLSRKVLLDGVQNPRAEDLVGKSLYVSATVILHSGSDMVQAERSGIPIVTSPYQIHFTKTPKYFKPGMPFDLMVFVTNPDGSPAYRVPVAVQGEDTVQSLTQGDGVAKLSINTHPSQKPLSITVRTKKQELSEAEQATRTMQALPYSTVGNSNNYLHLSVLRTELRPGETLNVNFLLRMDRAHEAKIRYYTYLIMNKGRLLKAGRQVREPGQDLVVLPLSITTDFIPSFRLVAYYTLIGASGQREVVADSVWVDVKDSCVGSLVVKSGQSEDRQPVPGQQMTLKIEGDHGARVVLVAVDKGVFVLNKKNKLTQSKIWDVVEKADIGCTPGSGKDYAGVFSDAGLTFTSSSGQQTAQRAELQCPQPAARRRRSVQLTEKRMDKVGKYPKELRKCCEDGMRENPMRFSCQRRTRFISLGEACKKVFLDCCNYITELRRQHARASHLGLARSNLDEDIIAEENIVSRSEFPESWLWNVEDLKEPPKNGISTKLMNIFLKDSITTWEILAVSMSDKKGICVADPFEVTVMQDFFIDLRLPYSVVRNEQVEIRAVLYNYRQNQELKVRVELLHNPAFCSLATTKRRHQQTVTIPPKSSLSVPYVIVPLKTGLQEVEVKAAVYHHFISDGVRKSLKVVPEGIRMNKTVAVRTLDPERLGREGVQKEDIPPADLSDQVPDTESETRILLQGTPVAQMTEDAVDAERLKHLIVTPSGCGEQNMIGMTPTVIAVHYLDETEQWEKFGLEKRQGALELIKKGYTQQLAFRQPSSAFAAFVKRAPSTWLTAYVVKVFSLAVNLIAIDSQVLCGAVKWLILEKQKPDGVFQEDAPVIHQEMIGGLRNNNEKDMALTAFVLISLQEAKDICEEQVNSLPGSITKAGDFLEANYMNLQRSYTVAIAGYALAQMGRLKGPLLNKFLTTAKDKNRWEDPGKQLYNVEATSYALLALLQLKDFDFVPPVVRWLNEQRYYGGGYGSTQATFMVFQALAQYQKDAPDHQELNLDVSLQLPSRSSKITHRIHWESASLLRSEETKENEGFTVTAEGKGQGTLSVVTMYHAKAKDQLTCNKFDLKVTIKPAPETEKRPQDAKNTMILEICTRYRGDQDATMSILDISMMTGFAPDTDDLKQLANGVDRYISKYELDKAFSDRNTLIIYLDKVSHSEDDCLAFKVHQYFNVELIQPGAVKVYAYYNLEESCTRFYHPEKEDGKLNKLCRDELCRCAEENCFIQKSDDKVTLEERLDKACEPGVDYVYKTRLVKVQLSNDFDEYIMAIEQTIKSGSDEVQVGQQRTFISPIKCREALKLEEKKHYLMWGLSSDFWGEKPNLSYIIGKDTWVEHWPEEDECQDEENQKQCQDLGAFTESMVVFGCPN

Molecule	Kd [1] [pM]	koff [1] [s⁻¹]	kon [1] [M⁻¹ s⁻¹]	Kd [2] [pM]	koff [2] [s⁻¹]	kon [2] [M⁻¹ s⁻¹]
Positive control (human IgG1 in buffer, 0.98 mg/mL) (antibody)	256	4.92e-05	193000			
B1				130	2.67e-05	206000
